Results from IntAct's records for PubMed 36931259.

B1: 14-3-3 protein sigma (Homo sapiens), P31947 (parent)
chain: MERASLIQKAKLAEQAERYEDMAAFMKGAVEKGEELSCEERNLLSVAYKNVVGGQRAAWRVLSSIEQKSNEEGSEEKGPEVREYREKVETELQGVCDTVLGLLDSHLIKEAGDAESRVFYLKMKGDYYRYLAEVATGDDKKRIIDSARSAYQEAMDISKKEMPPTNPIRLGLALNFSVFHYEIANSPEEAISLAKTTFDEAMADLHTLSEDSYKDSTLIMQLLRDNLTLWTADNAGEEGGEAPQEPQS
partner: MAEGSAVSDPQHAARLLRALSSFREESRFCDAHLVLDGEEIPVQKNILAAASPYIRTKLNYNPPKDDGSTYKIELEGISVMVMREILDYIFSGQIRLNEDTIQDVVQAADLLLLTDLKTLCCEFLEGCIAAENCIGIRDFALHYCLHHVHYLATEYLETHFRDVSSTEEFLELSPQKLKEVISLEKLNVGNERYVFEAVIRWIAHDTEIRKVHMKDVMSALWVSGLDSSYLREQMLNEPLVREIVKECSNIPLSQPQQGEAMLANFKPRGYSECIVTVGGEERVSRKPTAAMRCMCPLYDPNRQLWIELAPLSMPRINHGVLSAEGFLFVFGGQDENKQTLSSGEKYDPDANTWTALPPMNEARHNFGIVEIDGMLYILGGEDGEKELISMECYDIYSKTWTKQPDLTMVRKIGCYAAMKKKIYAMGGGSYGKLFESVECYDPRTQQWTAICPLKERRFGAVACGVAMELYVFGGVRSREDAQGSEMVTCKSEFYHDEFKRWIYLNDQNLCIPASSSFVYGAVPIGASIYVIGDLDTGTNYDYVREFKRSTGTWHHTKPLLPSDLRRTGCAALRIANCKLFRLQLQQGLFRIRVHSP
B2: 14-3-3 protein sigma (Homo sapiens), P31947 (parent)
chain: B1 chain
partner: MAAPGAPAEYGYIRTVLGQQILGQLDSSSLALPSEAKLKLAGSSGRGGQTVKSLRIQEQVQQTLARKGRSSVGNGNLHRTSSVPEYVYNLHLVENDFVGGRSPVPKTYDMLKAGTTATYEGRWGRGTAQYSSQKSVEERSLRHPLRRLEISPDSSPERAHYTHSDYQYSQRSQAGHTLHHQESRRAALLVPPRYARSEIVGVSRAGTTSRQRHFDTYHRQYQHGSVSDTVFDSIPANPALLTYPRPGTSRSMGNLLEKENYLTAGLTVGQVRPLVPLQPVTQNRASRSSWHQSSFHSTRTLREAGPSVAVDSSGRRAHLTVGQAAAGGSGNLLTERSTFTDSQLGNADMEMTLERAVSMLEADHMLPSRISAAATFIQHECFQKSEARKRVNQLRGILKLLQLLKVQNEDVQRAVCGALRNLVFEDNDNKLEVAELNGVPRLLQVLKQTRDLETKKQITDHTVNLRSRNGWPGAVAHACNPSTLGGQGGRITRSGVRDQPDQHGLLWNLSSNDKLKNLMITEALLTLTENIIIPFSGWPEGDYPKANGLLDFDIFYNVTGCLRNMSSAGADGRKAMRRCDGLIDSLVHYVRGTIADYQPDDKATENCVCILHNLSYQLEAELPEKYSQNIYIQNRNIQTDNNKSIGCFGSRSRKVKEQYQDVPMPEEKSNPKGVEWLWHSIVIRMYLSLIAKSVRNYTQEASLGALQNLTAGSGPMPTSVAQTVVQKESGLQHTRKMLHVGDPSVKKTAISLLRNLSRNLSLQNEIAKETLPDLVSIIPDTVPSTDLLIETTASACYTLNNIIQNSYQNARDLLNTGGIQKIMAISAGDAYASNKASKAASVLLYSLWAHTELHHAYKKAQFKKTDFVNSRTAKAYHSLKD
B3: 14-3-3 protein sigma (Homo sapiens), P31947 (parent)
chain: B1 chain
partner: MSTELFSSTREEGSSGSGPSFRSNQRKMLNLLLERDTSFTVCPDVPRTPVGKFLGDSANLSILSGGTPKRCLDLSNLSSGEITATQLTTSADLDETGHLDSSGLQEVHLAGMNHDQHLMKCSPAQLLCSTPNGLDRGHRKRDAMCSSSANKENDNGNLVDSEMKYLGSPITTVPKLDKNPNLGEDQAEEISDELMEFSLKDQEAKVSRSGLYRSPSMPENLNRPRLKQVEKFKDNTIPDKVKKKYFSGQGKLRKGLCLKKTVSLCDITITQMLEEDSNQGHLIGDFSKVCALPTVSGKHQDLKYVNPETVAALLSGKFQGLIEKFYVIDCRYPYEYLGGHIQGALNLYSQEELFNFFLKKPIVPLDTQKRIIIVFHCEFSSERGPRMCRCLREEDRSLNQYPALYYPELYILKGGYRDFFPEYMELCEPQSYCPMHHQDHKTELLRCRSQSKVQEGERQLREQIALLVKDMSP
B4: 14-3-3 protein sigma (Homo sapiens), P31947 (parent)
chain: B1 chain
partner: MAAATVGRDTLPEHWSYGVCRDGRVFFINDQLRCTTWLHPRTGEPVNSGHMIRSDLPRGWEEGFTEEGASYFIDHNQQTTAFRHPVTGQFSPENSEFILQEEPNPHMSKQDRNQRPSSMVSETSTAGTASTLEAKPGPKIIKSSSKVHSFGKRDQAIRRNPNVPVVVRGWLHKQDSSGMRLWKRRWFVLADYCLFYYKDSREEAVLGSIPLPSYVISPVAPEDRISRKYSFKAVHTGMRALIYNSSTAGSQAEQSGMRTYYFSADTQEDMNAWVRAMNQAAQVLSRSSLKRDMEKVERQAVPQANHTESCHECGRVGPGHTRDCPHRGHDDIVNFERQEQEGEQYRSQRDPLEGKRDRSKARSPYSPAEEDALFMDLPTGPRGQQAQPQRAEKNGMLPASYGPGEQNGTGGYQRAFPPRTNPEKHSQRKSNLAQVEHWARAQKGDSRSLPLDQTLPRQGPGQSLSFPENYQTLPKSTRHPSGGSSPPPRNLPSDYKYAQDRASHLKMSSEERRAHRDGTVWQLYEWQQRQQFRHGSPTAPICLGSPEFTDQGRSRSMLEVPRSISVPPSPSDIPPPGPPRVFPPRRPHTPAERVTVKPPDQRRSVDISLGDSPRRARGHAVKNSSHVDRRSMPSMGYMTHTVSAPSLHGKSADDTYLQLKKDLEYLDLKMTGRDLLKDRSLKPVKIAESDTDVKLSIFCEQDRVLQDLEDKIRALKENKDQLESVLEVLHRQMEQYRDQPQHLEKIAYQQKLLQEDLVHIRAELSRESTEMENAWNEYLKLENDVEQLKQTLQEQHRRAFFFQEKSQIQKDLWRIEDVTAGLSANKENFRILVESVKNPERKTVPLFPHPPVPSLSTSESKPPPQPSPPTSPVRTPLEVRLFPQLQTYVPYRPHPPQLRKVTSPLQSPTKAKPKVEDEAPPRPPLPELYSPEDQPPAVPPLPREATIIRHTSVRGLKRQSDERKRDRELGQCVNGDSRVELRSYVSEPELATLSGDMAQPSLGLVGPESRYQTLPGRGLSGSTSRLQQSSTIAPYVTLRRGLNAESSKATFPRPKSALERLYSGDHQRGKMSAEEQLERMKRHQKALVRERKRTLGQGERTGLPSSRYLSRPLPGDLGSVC
B5: 14-3-3 protein sigma (Homo sapiens), P31947 (parent)
chain: B1 chain
partner: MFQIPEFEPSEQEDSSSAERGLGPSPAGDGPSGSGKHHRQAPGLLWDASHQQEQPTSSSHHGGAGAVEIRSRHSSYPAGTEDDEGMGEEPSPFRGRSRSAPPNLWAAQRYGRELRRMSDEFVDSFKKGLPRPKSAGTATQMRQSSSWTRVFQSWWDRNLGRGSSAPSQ
B6: 14-3-3 protein sigma (Homo sapiens), P31947 (parent)
chain: B1 chain
partner: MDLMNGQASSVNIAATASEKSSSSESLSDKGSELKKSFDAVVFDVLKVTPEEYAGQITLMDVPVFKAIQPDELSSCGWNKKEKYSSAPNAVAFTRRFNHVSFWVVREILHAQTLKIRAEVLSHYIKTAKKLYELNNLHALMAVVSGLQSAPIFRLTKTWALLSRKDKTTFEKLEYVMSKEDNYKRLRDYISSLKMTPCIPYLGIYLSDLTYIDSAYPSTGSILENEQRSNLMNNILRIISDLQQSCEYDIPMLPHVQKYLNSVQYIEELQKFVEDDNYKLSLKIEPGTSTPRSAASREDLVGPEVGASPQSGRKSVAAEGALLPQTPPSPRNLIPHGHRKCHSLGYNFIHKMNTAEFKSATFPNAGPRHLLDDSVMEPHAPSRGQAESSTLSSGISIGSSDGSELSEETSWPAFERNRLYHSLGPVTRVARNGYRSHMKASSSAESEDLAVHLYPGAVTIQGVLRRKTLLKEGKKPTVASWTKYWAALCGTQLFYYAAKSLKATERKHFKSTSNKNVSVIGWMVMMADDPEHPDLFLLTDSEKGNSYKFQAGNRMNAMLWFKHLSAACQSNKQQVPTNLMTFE

Variants of: B1
Details: with gan_human GAN

| Variant | effect of a mutation on the interaction |
| --- | --- |
| K49E;R56E;V178D | decreasing interaction strength |

Variants of: B2
Details: with pkp2_human PKP2, Q99959

| Variant | effect of a mutation on the interaction |
| --- | --- |
| K49E;R56E;V178D | decreasing interaction strength |

Variants of: B3
Details: with mpip3_human CDC25C

| Variant | effect of a mutation on the interaction |
| --- | --- |
| K49E;R56E;V178D | decreasing interaction strength |

Variants of: B4
Details: with pkha7_human PLEKHA7, Q6IQ23

| Variant | effect of a mutation on the interaction |
| --- | --- |
| K49E;R56E;V178D | decreasing interaction strength |

Variants of: B5
Details: with bad_human BAD

| Variant | effect of a mutation on the interaction |
| --- | --- |
| K49E;R56E;V178D | decreasing interaction strength |

Variants of: B6
Details: with rgps2_human RALGPS2, Q86X27

| Variant | effect of a mutation on the interaction |
| --- | --- |
| K49E;R56E;V178D | decreasing interaction strength |
